Biological target: Human PCNA (human, UniProt P12004 1-261)
Test: pull-down

Human PCNA, sequence (P12004 whole entry): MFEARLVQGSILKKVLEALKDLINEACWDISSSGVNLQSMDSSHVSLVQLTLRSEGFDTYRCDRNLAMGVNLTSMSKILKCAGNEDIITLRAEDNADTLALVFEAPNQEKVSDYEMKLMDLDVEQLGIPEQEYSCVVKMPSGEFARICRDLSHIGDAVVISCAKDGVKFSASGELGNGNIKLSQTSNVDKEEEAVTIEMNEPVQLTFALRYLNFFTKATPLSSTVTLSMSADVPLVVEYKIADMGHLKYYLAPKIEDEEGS

- binding result: binds
B1: GST-tagged SNM1A PIP box peptide (GST-PIP) (peptide)
chain: ARHPSTKVMKQMDIGVYFGLPPKRKEEKLL

— doi:10.1101/2022.07.21.500940 (bioRxiv, 2022)
